This experiment deals with Flag-tagged MxA wildtype (human myxovirus resistance protein A) (human) (UniProt P20591).

“SiAr126 nucleoprotein (NP), wildtype, from expression plasmid (natural protein)”: the SiAr126 polymerase reconstitution (minigenome firefly luciferase) in 293T cells: inhibition by co-expressed MxA compared with the inactive MxA(T103A) was 90%.

For the origin of these results see publication PMC7704052.
